Here are results for three molecules from patent KR20210043475A (dated 2021).

Experiment [1] addresses T1, PD-L1-his (human, UniProt Q9NZQ7 19-238, limits assumed).
T1 construct: also called 인간 PD-L1; not shown: his tag
The experiment can be described thus: SPR (Biacore 8K), PD-L1-his immobilised on CM5 chip, binder as analyte; monovalent stem Fv. For orientation: SPR reads the build-up and loss of mass on a sensor chip optically.

Experiment [2] concerns the target T2, PD-L1 on cells (human, UniProt Q9NZQ7 19-290).
T2 construct: whole, on cells; the tumour lines are human lines; The cell line of each result is named under assay or readout; also called PD-L1 + Karpas-299 세포; PD-L1 + HCC827
In words: flow cytometry, apparent affinity on PD-L1 + Karpas-299 cells. Background: A flow cytometer gives signals particle by particle.

The next experiment concerns the target T3, CD3 on T cells (UniProt P07766 23-207).
T3 construct: whole, on cells; also called CD3 + Jurkat T 세포; Jurkat T 세포의 CD3
In words: flow cytometry, apparent affinity on CD3 + Jurkat T cells.

For experiment [3], the target named is T1, PD-L1-his. The experiment can be described thus: SPR (Biacore 8K); ratio of KD against YBL-007 on PD-L1.
For experiment [4], the target named is T1, PD-L1-his. The experiment can be described thus: SPR (Biacore 8K), PD-L1-his immobilised on CM5 chip, binder as analyte.
The target of experiment [5] is T2, PD-L1 on cells. In words: cell-based or functional assay.

T1 sequence (Q9NZQ7 19-238 limits assumed): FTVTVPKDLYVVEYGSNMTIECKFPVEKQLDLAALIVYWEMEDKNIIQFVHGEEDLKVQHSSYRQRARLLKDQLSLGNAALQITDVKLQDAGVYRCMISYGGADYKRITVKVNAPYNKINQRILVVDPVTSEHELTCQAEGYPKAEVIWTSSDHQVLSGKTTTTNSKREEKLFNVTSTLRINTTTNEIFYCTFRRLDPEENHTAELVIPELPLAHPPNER
T2 sequence (Q9NZQ7 19-290): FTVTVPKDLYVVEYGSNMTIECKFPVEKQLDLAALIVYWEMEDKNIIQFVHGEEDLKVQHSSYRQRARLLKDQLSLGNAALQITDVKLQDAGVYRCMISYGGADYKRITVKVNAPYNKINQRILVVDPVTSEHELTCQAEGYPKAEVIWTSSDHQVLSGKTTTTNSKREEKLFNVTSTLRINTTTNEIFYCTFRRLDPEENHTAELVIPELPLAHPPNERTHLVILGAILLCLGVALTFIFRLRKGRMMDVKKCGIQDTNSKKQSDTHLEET
T3 sequence (P07766 23-207): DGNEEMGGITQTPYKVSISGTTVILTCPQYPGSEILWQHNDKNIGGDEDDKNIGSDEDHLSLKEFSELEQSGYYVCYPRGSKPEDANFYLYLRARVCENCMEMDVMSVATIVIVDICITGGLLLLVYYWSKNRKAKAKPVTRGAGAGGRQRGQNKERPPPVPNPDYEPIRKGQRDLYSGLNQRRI

B1: ACE-31 (항-CD3 Fab × 항-PD-L1 Fv) (bispecific antibody)
heavy 1: EVQLQQSGPELVKPGPSMKISCKASGYSFTGYTMNWVKQSHGKNLEWMGLINPYKGVSTYNQKFKDKATLTVDKSSSTAYMELLSLTSEDSAVYYCARSGYYGDSDWYFDVWGQGTTLTVFSASTKGPSVFPLAPSSKSTSGGTAALGCLVKDYFPEPVTVSWNSGALTSGVHTFPAVLQSSGLYSLSSVVTVPSSSLGTQTYICNVNHKPSNTKVDKKVEPKSCDKTHTCPPCPPCPAPELLGGPGGGGSGGGGSQMQLVQSGAEVKKPGSSVKVSCKASGGTFSSYAISWVRQAPGQGLEWMGRIIPILGIANYAQKFQGRVTITADKSTSTAYMELSSLRSEDTAVYYCAKPRDGYNLVAFDIWGQGTMVTVSS
heavy 2: EVQLQQSGPELVKPGPSMKISCKASGYSFTGYTMNWVKQSHGKNLEWMGLINPYKGVSTYNQKFKDKATLTVDKSSSTAYMELLSLTSEDSAVYYCARSGYYGDSDWYFDVWGQGTTLTVFSASTKGPSVFPLAPSSKSTSGGTAALGCLVKDYFPEPVTVSWNSGALTSGVHTFPAVLQSSGLYSLSSVVTVPSSSLGTQTYICNVNHKPSNTKVDKKVEPKSCDKTHTCPPCPPCPAPELLGGPGGGGSQLVLTQPPSVSGAPGQRVTISCTGSSSNIGAGYDVHWYQQLPGAAPKLLIYGDINRPSGVPDRFSGSKSGISASLAITGLQAEDEADYYCQSYDSSLSGGVFGGGTKLTVLR
light: DIQMTQTTSSLSASLGDRVTISCRASQDIRNYLNWYQQKPDGTVKLLIYYTSRLHSGVPSKFSGSGSGTDYSLTISNLEQEDIATYFCQQGNTLPWTFAGGTKLEIKRTVAAPSVFIFPPSDEQLKSGTASVVCLLNNFYPREAKVQWKVDNALQSGNSQESVTEQDSKDSTYSLSSTLTLSKADYEKHKVYACEVTHQGLSSPVTKSFNRGEC
notes: also called ACE-31-VH / ACE-31-VL / ACE-31-LC
Turning to B1, the Kd in the experiment with PD-L1-his [1] was found to be 27200 pM; with PD-L1 on cells [2] it was 20600 pM; with CD3 on T cells it was 856 pM. Further, in the experiment with PD-L1-his [3], the “fold lower binding affinity than the parent antibody YBL-007” value is 40 fold.

B2: YBL-007 (항-PD-L1 모 항체) (antibody, V domains shown)
VH: QMQLVQSGAEVKKPGSSVKVSCKASGGTFSSYAISWVRQAPGQGLEWMGRIIPILGIANYAQKFQGRVTITADKSTSTAYMELSSLRSEDTAVYYCAKPRDGYNLVAFDIWGQGTMVTVSS
VL: QLVLTQPPSVSGAPGQRVTISCTGSSSNIGAGYDVHWYQQLPGAAPKLLIYGDINRPSGVPDRFSGSKSGISASLAITGLQAEDEADYYCQSYDSSLSGGVFGGGTKLTVLR
notes: Parent IgG; also called anti-PD-L1 parent antibody (Y-Biologics Inc.)
For B2, the Kd in the experiment with PD-L1-his [4] is 646 pM.

B3: ACE-05 (항-PD-L1 Fab × 항-CD3 Fv) (bispecific antibody)
heavy 1: not shown
heavy 2: not shown
light: QLVLTQPPSVSGAPGQRVTISCTGSSSNIGAGYDVHWYQQLPGAAPKLLIYGDINRPSGVPDRFSGSKSGISASLAITGLQAEDEADYYCQSYDSSLSGGVFGGGTKLTVLRSVAAPSVFIFPPSDEQLKSGTASVVCLLNNFYPREAKVQWKVDNALQSGNSQESVTEQDSKDSTYSLSSTLTLSKADYEKHKVYACEVTHQGLSSPVTKSFNRGEC
notes: also called ALiCE; ACE-05-VH / ACE-05-VL / ACE-05-LC
B3: the Kd with PD-L1 on cells [2] stood at 31.4 pM. In the experiment with PD-L1 on cells [5], the “T 세포 활성화 효율 (EC50); PD-1/PD-L1 blockade bioassay, NFAT-luciferase, PD-L1/aAPC CHO-K1 + PD-1 Jurkat” value was 210 pM; the “T 세포 활성화 효율, fold against BiTE-05; PD-1/PD-L1 blockade bioassay” value amounted to 5 fold; the “표적 사멸 활성 (EC50), LDH release, PD-L1 + HCC827 cells with effector cells (PBMC)” value was found to be 1.97 pM; the “표적 사멸 활성 (EC50), LDH release, PD-L1 + MDA-MB-231 cells with effector cells (CD3 + T cells)” value amounted to 8.37 pM. Moreover, the Kd with PD-L1-his [4] turned out to be 678 pM. Further, the Kd in the experiment with CD3 on T cells came to 52400 pM.
